{
  "source": "patent US20240410900A1",
  "about": "(Hoffmann-La Roche, published 2024)",
  "binders": {"B1": {"name": "anti-PG variant Fc-region antibody M1.3.17 (antibody, V domains shown)", "VH": "EVKLLESGGGLVQPGGSLKLSCAASGIDFRRYWMNWVRQAPGKGLEWIGEIDPDSSTINYTPSLKDKFIISRDNAKNTMYLQMRKVRSEDTALYYCARPYDYGAWFAYWGQGTLVTVSA", "VL": "QAVVTQESALTTSPGETVTLTCRSTTGAVTTSNYANWVQEKPDHLFTGLIGGTNKRAPGVPARFSGSLIGDKAALTITGAQTEDEAIYFCALWYSDHWVFGGGTKLTVL", "notes": "Monomeric, bivalent full-length antibody with murine variable domains; Biotinylated when used as capture antibody; also called anti-PG antibody clone 1.3.17; M1.3.17-Bi"}, "B2": {"name": "anti-AAA variant Fc-region antibody M1.6.22 (antibody, V domains shown)", "VH": "EVQLVESGGDLVKPGGSLKLSCAASGFTFSSYGMSWVRQTPDKRLEWVATISSGGSYIYYPDSVKGRFTISRDNAKNTLYLQMSSLKSEDTAMYYCARLGMITTGYAMDYWGQGTSVTVSS", "VL": "DVLMTQTPLSLPVSLGDQASISCRSSQTIVHSTGHTYLEWFLQKPGQSPKLLIYKVSNRFSGVPDRFSGSGSGTDFTLKISRVEAEDLGVYYCFQGSHVPYTFGGGTKLEIK", "notes": "Murine variable domains; also called M1.6.22-Bi"}, "B3": {"name": "anti-PG variant Fc-region antibody M1.7.24 (monomeric, bivalent) (antibody, V domains shown)", "VH": "B1 VH with I27F, R30S, D52T, M79L, R84I, A97V, Y108S", "VL": "B1 VL with T25S, D96N", "notes": "Full-length Y-shaped antibody with murine variable domains; Biotinylated when used as capture antibody; also called anti-PG antibody clone 1.7.24; M1.7.24-Bi"}},
  "key": {"[1]": {"target": "T1, anti-VEGF/ANG2 antibody (wild-type IgG1 subclass) (UniProt P01857-1 1-330 = IgG part)", "T1 construct": "also called sample 5; antibody 5", "test": "ELISA assay B, tracer M1.7.10-Dig, target 13 ng/mL", "description": "(§1) Biotinylated anti-PG Fc-region antibody or biotinylated anti-AAA Fc-region antibody, respectively, was bound to the wells of a streptavidin-coated multi-well plate (SA-MTP) to produce a capture plate. Excess of unbound antibody was removed by washing. Sample/standard antibodies spiked in human and cynomolgus monkey serum (10% final concentration) was added to wells of the SA-MTP multi-well plate coated with the capture plate and incubated for 1 hour at room temperature. After washing, the wells were incubated with digoxygenylated anti-human kappa antibody M1.7.10 (see e.g. WO 2011/048043, incorporated herein by reference). After washing the bound digoxygenylated anti-human kappa antibody complex was incubated with a horseradish peroxidase (HRP) labelled anti-digoxygenin antibody. After another washing step, an ABTS solution was added to the wells and incubated. The product of the color reaction was measured by Elisa reader at 405 nm wavelength (reference wavelength: 490 nm). Absorbance values of each sample or standard were determined in triplicates."}, "[2]": {"target": "T2, anti-VEGF/ANG2 antibody (IgG1 subclass with mutations P329G/L234A/L235A)", "T2 construct": "Positions are EU numbers; also called sample 2; antibody 2", "test": "ELISA assay B, tracer M1.7.10-Dig, target 13 ng/mL", "description": "as §1"}, "[3]": {"target": "T3, anti-IGF-1R antibody (IgG1 subclass with mutations I253A/H310A/H435A)", "T3 construct": "Positions are EU numbers; also called sample 3; antibody 3", "test": "ELISA assay B, tracer M1.7.10-Dig, target 13 ng/mL", "description": "as §1"}, "[4]": {"target": "T4, anti-P-Selectin antibody (IgG4 subclass with mutations S228P/L235E)", "T4 construct": "Positions are EU numbers; also called sample 4; antibody 4", "test": "ELISA assay B, tracer M1.7.10-Dig, target 13 ng/mL", "description": "as §1"}, "[5]": {"target": "T5, anti-VEGF/ANG2 antibody (IgG1 subclass with mutations P329G/L234A/L235A/I253A/H310A/H435A)", "T5 construct": "Format of the bispecific antibody not described; Positions are EU numbers, not positions on the UniProt entry; also called sample 1; antibody 1", "test": "ELISA assay B, tracer M1.7.10-Dig, target 13 ng/mL", "description": "as §1"}, "[6]": {"target": "T1, anti-VEGF/ANG2 antibody (wild-type IgG1 …)", "test": "ELISA assay B, tracer M1.7.10-Dig, target 100 ng/mL", "description": "as §1"}, "[7]": {"target": "T2, anti-VEGF/ANG2 antibody (IgG1 subclass …)", "test": "ELISA assay B, tracer M1.7.10-Dig, target 100 ng/mL", "description": "as §1"}, "[8]": {"target": "T3, anti-IGF-1R antibody (IgG1 subclass …)", "test": "ELISA assay B, tracer M1.7.10-Dig, target 100 ng/mL", "description": "as §1"}, "[9]": {"target": "T4, anti-P-Selectin antibody (IgG4 subclass …)", "test": "ELISA assay B, tracer M1.7.10-Dig, target 100 ng/mL", "description": "as §1"}, "[10]": {"target": "T5, anti-VEGF/ANG2 antibody (IgG1 subclass …)", "test": "ELISA assay B, tracer M1.7.10-Dig, target 100 ng/mL", "description": "as §1"}, "[11]": {"target": "T5, anti-VEGF/ANG2 antibody (IgG1 subclass …)", "test": "bridging ELISA, target-Bi capture and target-Dig tracer, binder 125 ng/mL, against the blank", "description": "A dilution series of the monomeric full-length anti-PG Fc-region antibody clone 1.3.17 was prepared as standards for checking the possibility of generating a standard curve.\nBiotinylated anti-VEGF/ANG2 antibody with the mutations P329G, L234A, L235A, I253A, H310A, and H435A and digoxygenylated anti-VEGF/ANG2 antibody with the mutations P329G, L234A, L235A, 1253A, H310A, and H435A were pre-incubated with the standards overnight at room temperature. After pre-incubation, the samples were transferred to a streptavidin-coated multi-well plate and incubated for 1 hour at room temperature. Excess of unbound antibody was removed by washing. After a washing step the bound digoxygenylated complexes comprising biotinylated and digoxygenylated anti-VEGF/ANG2 antibody with the mutations P329G, L234A, L235A, 1253A, H310A, and H435A as well as the monomeric, full-length anti-PG Fc-region antibody M1.3.17 (SEQ ID NO: 03 and 04) were detected with an horseradish peroxidase (HRP) labelled anti-digoxygenin-antibody. After a washing step and upon incubation with the respective substrate the HRP present in the formed complex catalyzes the conversion of ABTS into a colored product. The signal was measured by Elisa reader at 405 nm wavelength (reference wavelength: 490 nm). Absorbance values of each serum sample were determined in triplicates."}, "[12]": {"target": "T6, drug antibody (capture and tracer of the bridging immunoassay of FIGS. 2, 7 and 8; not named)", "T6 construct": "also called the same but differently derivatized drug antibodies", "test": "bridging immunoassay, drug antibody as capture and tracer, binder at 2,500 ng/ml"}, "[13]": {"target": "T6, drug antibody (capture and tracer of …)", "test": "bridging immunoassay, drug antibody as capture and tracer, binder at 1000 ng/mL"}},
  "note": "Positions count from the first letter of the chain named.",
  "data": [
    {"binder": "B1", "values": [
      {"measurement": "signal [OD405 nm]", "setting": "[1]", "value": 0.042, "unit": "OD405 nm"},
      {"measurement": "signal [OD405 nm]", "setting": "[2]", "value": 0.217, "unit": "OD405 nm"},
      {"measurement": "signal [OD405 nm]", "setting": "[3]", "value": 0.044, "unit": "OD405 nm"},
      {"measurement": "signal [OD405 nm]", "setting": "[4]", "value": 0.047, "unit": "OD405 nm"},
      {"measurement": "signal [OD405 nm]", "setting": "[5]", "value": 0.034, "unit": "OD405 nm"},
      {"measurement": "signal [OD405 nm]", "setting": "[6]", "value": 0.043, "unit": "OD405 nm"},
      {"measurement": "signal [OD405 nm]", "setting": "[7]", "value": 0.216, "unit": "OD405 nm"},
      {"measurement": "signal [OD405 nm]", "setting": "[8]", "value": 0.05, "unit": "OD405 nm"},
      {"measurement": "signal [OD405 nm]", "setting": "[9]", "value": 0.048, "unit": "OD405 nm"},
      {"measurement": "signal [OD405 nm]", "setting": "[10]", "value": 0.035, "unit": "OD405 nm"},
      {"measurement": "signal to noise ratio", "setting": "[11]", "value": 1.85}
    ]},
    {"binder": "B2", "values": [
      {"measurement": "signal [OD405 nm]", "setting": "[1]", "value": 0.046, "unit": "OD405 nm"},
      {"measurement": "signal [OD405 nm]", "setting": "[2]", "value": 0.066, "unit": "OD405 nm"},
      {"measurement": "signal [OD405 nm]", "setting": "[3]", "value": 2.85, "unit": "OD405 nm"},
      {"measurement": "signal [OD405 nm]", "setting": "[4]", "value": 0.042, "unit": "OD405 nm"},
      {"measurement": "signal [OD405 nm]", "setting": "[5]", "value": 0.041, "unit": "OD405 nm"},
      {"measurement": "signal [OD405 nm]", "setting": "[6]", "value": 0.061, "unit": "OD405 nm"},
      {"measurement": "signal [OD405 nm]", "setting": "[7]", "value": 0.21, "unit": "OD405 nm"},
      {"measurement": "signal [OD405 nm]", "setting": "[8]", "value": 2.9, "unit": "OD405 nm"},
      {"measurement": "signal [OD405 nm]", "setting": "[9]", "value": 0.051, "unit": "OD405 nm"},
      {"measurement": "signal [OD405 nm]", "setting": "[10]", "value": 0.052, "unit": "OD405 nm"}
    ]},
    {"binder": "B3", "values": [
      {"measurement": "signal-to-noise ratio", "setting": "[12]", "value": "> 2"},
      {"measurement": "signal-to-noise ratio (S/N)", "setting": "[13]", "value": 3.8},
      {"measurement": "signal [OD405 nm]", "setting": "[1]", "value": 0.04, "unit": "OD405 nm"},
      {"measurement": "signal [OD405 nm]", "setting": "[2]", "value": 3.15, "unit": "OD405 nm"},
      {"measurement": "signal [OD405 nm]", "setting": "[3]", "value": 0.043, "unit": "OD405 nm"},
      {"measurement": "signal [OD405 nm]", "setting": "[4]", "value": 0.037, "unit": "OD405 nm"},
      {"measurement": "signal [OD405 nm]", "setting": "[5]", "value": 0.053, "unit": "OD405 nm"},
      {"measurement": "signal [OD405 nm]", "setting": "[6]", "value": 0.047, "unit": "OD405 nm"},
      {"measurement": "signal [OD405 nm]", "setting": "[7]", "value": 3.23, "unit": "OD405 nm"},
      {"measurement": "signal [OD405 nm]", "setting": "[8]", "value": 0.098, "unit": "OD405 nm"},
      {"measurement": "signal [OD405 nm]", "setting": "[9]", "value": 0.05, "unit": "OD405 nm"},
      {"measurement": "signal [OD405 nm]", "setting": "[10]", "value": 0.057, "unit": "OD405 nm"}
    ]}
  ]
}
